Measurements reported in article PMC8276696 (2021).

Target: wild-type monomeric SARS-CoV-2 S receptor-binding domain (RBD) (SARS-CoV-2 (Wuhan-Hu-1), UniProt P0DTC2)
Assay: BLI

B1: CV30 IgG (antibody, V domains shown)
VH: QVQLVESGGGLIQPGGSLRLSCAASGVIVSSNYMSWVRQAPGKGLEWVSVIYSGGSTYYADSVKGRFTISRDNSKNTLYLQMNSLRAEDTAVYYCARDLDVSGGMDVWGQGTTVTVSS
VL: not shown
**Q.** How did the Kd turn out when B1 was run?
**A.** Its Kd is 8.8 nM.
